Fewer inactive variants are shown than the library holds.
B1: TPR 5TU (parent)
chain: GGAUCUUCUCGAUCUAACAAAAAAGACAAAUCUGCCACAAAGCUUGAGAGCAUCUUCGGAUGCAGAGGCGGCAGCCUUCGGUGGCGCGAUAGCGCCAACGUUCUCAACUAUGACACGCAAAACGCGUGCUCCGUUGAAUGGAGUUUAUCAUG

Variants of: B1
Experiment: polymerase ribozyme fitness, log enrichment relative to wild type (log ratio); higher = more active; in vitro selection for triplet polymerase activity
Method in brief: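 One round of in vitro selection, in triplicate, was applied to PCR-built, transcribed mutant libraries of each subunit of a heterodimeric triplet polymerase ribozyme. The steps were annealing with a biotinylated primer, partner subunit and triplets, incubation frozen at −7 °C, gel excision of extended constructs, streptavidin-bead capture and RT-PCR. Fitness is the logarithm, base 2, of genotype enrichment over wild-type enrichment from inverse-variance-weighted replicate averages of Illumina-sequenced inputs and outputs, keeping genotypes with ≥10 input reads and ≥1 read per output.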

Row | Variant | polymerase ribozyme fitness (log ratio)
1 | A37C G71U G86A A106U C132G U145G | ≤ -4.2
2 | C35U G48A U78C C96G G117C | ≤ -4.2
3 | C35G U55G G67A G92U | ≤ -4.2
4 | C35U A52G A60C A121U | -3.29
5 | A37C C105U | -0.652
6 | C36U A64C G136A U145C A147C | ≤ -4.2
7 | C35U G50C C76A C79G C87G A142C G152U | ≤ -4.2
8 | C36A A73U G92U U134G G143U | -4.13
9 | C36U U102G C108A C116U A122G | ≤ -4.2
10 | C36A G42A U45G G81A C87A A137C | ≤ -4.2
11 | A37C G70A C85A G92A C93A | ≤ -4.2
12 | C35U G140C | -4.13
13 | C35U G46C C72U G74U C96U A107G | ≤ -4.2
14 | C36U C54A G65C G67U G68U C95G A110C A113U C116U G143C C149A | ≤ -4.2
15 | A37C G50U G59U G86U | -2.65
16 | C36A U78A | ≤ -4.2
17 | C36U C79A C87U A115C A122C C131G | ≤ -4.2
18 | A37C A60C C69U C85A U146G | -3.76
19 | C35U C43G C93A C103G | ≤ -4.2
20 | C36A C57G U77C A119G | ≤ -4.2
21 | C36A G46A C96U U148A | ≤ -4.2
22 | C35G G58C C125U A147C | ≤ -4.2
23 | C36U A41G C95A A122G | -0.35
24 | C36U C38A A91U C103A C116A | ≤ -4.2

Row | Variant | polymerase ribozyme fitness (log ratio)
25 | C36A U56G G68C A98G C103A A121U | ≤ -4.2
26 | C36U C93G C103G C129A G141C | ≤ -4.2
27 | C35G G50A G58A A66C C75A C87U | ≤ -4.2
28 | C36A A49C G71U G92A A107G U145C | ≤ -4.2
29 | C36A A98U A107U C131A U146G | ≤ -4.2
30 | C36U C85U G133A U135C | -4.18
31 | A37C A49C A91G G94A C96U A106G | ≤ -4.2
32 | C35U A52C U55A C93U C149A | ≤ -4.2
33 | C35U A91G | -2.83
34 | C35U A49C U53G C75G G92A A119U A120G G133U A138C | ≤ -4.2
35 | C36U U145A G152A | -3
36 | C35U G83A | -0.173
37 | C36U A73U A138U G140C | ≤ -4.2
38 | C36U C95U | -1.98
39 | C35U C36A U55G U127A | -3.9
40 | A37C U144A | -0.958
41 | C35U G88A | -4.1
42 | A37C C38G C85U | -1.28
43 | C35G G68A A91U U144C | ≤ -4.2
44 | C36U A52G C69U C85U U109G C118A | -3.73
45 | C35G U55A G94A U101G C131U | ≤ -4.2
46 | C36U U134G U148A | -4.04
47 | A37C A52C G84A | -3.24
48 | C36U C76U C85G | -2.42

Row | Variant | polymerase ribozyme fitness (log ratio)
49 | C36A C75U G83A A89C C99G C105U C123A C125A | ≤ -4.2
50 | C36A A66C G81A A91C C93U | ≤ -4.2
51 | C36G U44G G71U C96A C108G G140C | ≤ -4.2
52 | A37C G92A U146G | -4.01
53 | C36U A66G G112A A142U | ≤ -4.2
54 | C36A U56G G141U | ≤ -4.2
55 | C35U A41G C85U G141U | 1.25
56 | C35U G92A A122G | -3.92
57 | C36U A52U C75G G88C C105A C114G A115G | ≤ -4.2
58 | A37C A97G U151A | ≤ -4.2
59 | C36U G46U G86U C105A G124U | -3.12
60 | C35G G141C | -3.66
61 | C36G A47G U55C G84U C149A | ≤ -4.2
62 | A37C G46A U61A G74A C93U A122U | ≤ -4.2
63 | C35G G62C G67C C85G C131A A147U | ≤ -4.2
64 | C35U U127G | -4.01
65 | C35U A73G | -0.161
66 | C36A U55A C95G A97U U135A | ≤ -4.2
67 | A37C A49C G59C G83C C95A A122U G143U A150G | ≤ -4.2
68 | C36U G94A | -3.52
69 | A37C G59A G81A C96A | -2.74
70 | C36A A60C G71C C79A G84A A91G C93G | ≤ -4.2
71 | C35U C43A G58U C75G C87G A121U C123U G133A | ≤ -4.2
72 | A37C A49G C93U | -2.86

Row | Variant | polymerase ribozyme fitness (log ratio)
73 | A37C C96U G100C U102C C118G C131G | ≤ -4.2
74 | C35G G84A C93G U101G | ≤ -4.2
75 | A37C A47C | -1.24
76 | C35U G62A G83U G86C C125G A142U | ≤ -4.2
77 | A37C A40U G83A C93G A142G | ≤ -4.2
78 | C35U C54G C57G C69U U82A A91U G92A A113G | ≤ -4.2
79 | C35U C69U A91G C118A | -3.8
80 | C36G U55G A73U C108U C118A G133U | -4.17
81 | C35U C51U U55C C85A U101C C103A U144A | ≤ -4.2
82 | A37C A41G G86C G92U C95U | -3.05
83 | A37C C96G A106G | -0.258
84 | C35U C54G A66U C79A G80A G83C G84A C96U U101G U148C | ≤ -4.2
85 | A37C U55G G94A | 0.0696
86 | A37C A47C G88A G100A A137U | ≤ -4.2
87 | A37C C95A A138C G141C | ≤ -4.2
88 | C35U C75G U127C | ≤ -4.2
89 | C35U A41C U53A C75G C114U G136U | ≤ -4.2
90 | C36U G81A C93G G136A | ≤ -4.2
91 | C36U G50C C85A A110C | ≤ -4.2
92 | C35U U45A G83C C85G A97G G141C | ≤ -4.2
93 | C36A G48U C54G C57A C72A A91C | ≤ -4.2
94 | C35U A89U C95A G126A A142C | ≤ -4.2
95 | C36A C57U A66C C99A | ≤ -4.2
96 | C35U A41G C96A U144A | -0.485

Row | Variant | polymerase ribozyme fitness (log ratio)
97 | C35U C57U C95G C99G A120U | -3.85
98 | C36A G50C U53A U56A C93U A115U | ≤ -4.2
99 | A37C A64C G71A C85A G126C | ≤ -4.2
100 | C36U U55A A97G A121G U134G | -3.22
101 | C35U A73U C75G C76G U90C | ≤ -4.2
102 | C35U G84C | -1.94
103 | A37C A60C G67C C76G | -3.82
104 | C36A U56A | -3.62
105 | A37C C95G | -2.69
106 | A37C C95U | -2.04
107 | C36A U78C G80U C149U | ≤ -4.2
108 | C36A C87U G140C | ≤ -4.2
109 | C35U C54A G84A U146C | -1
110 | A37C G58C G65A | -3.6
111 | C35U G50U G59C A60U C85A G94C G141A | ≤ -4.2
112 | C35U U44A C54A C87U A110U | ≤ -4.2
113 | C36A U56G C85A | ≤ -4.2
114 | C35U C129U | -0.479
115 | C36U G128C G140U | ≤ -4.2
116 | C36A C87G A107C | ≤ -4.2
117 | A37C C114U | -3.07
118 | C35U U44A A49C G74U G80A U109G A121G | ≤ -4.2
119 | C35U U56A U61A C63U A64G | ≤ -4.2
120 | C35U A49G G70A C95G C105A | ≤ -4.2

Row | Variant | polymerase ribozyme fitness (log ratio)
121 | A37C C95A A97C A121U | -2.71
122 | C36U C99U U145A | -1.47
123 | C35U C116A | -0.104
124 | C35U C51U C85A | -3.1
125 | C35U C75A G86A A107G G140U | ≤ -4.2
126 | C36A G84U C114A A120U G143U | -4.19
127 | C36U C54G A66C G84U C95A U101G | ≤ -4.2
128 | C35U C93G G141A | -3.56
129 | A37C C43U G84A C114A U130G U151G | ≤ -4.2
130 | C36A G46C C79U G88U U151A | ≤ -4.2
131 | C35U G46U C96U | -1.23
132 | C35U G86U C95G | -3.9
133 | A37C G86A C103A A120U | ≤ -4.2
134 | A37C C54U A60C U61G C96U C99A G112A A115G | ≤ -4.2
135 | C35U C43A C95G U101C | ≤ -4.2
136 | A37C A40C A66U C75G G94U A120G C131G G141A | ≤ -4.2
137 | A37C A64U A66G C85A A107G | ≤ -4.2
138 | C36U A52G G70U G84A | -2.84
139 | C36A C95U | -3.7
140 | A37C G84A U101G G126C U135C | -3.6
141 | C36A G92A U101A | ≤ -4.2
142 | A37C G83A A122U C131U U134C | 0.318
143 | C36U C95G C108A | -3.89
144 | A37C A49C C57G C75U A137U G141C | ≤ -4.2

Row | Variant | polymerase ribozyme fitness (log ratio)
145 | A37C A115U | -1.16
146 | C35U U53A | -0.557
147 | C36A U45C C95U C114U A119U | ≤ -4.2
148 | C36U G50U C54U C99U | -4.14
149 | C35U C95U A107C U109A A115U | ≤ -4.2
150 | A37C C95U C103G C118G | ≤ -4.2
151 | C36U C96G | -2.56
152 | A37C C57U G86A C95G C99G C131U | ≤ -4.2
153 | C35U C51U G67A G92A C131G G133A U145G | ≤ -4.2
154 | C36A A122U G126A G136C | ≤ -4.2
155 | C36A U82A A98G | -4.01
156 | C35U G92U C116U | 0.616
157 | C36U A39U | -2.71
158 | C35U G50C | -3.9
159 | C35G G83C A91C C108U G136U | ≤ -4.2
160 | C36G U56A G94U A97C A120U C125U | ≤ -4.2
161 | C35U A47C U56G A64U A106U G133U | ≤ -4.2
162 | C35U C76U C99U | -1.5
163 | C36A A40C G83C A106G U144A | ≤ -4.2
164 | C35U G136A | 0.0897
165 | C35U C76G A89U A97G | ≤ -4.2
166 | C36U G71A G94A | ≤ -4.2
167 | C36U U61G | -2.22

Reference: the RNAGym collection of RNA variant scans (doi:10.1073/pnas.2313332121)
